# Measurements from the supplement of paper PMC12042874.
# ± gives the uncertainty stated by the source.
# Assay: amyloid nucleation score (Sup35N fusion, yeast selection) (log enrichment); library NNK3; higher = more nucleation; inactive = no reads after selection
# Procedure, shortened: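 Peptides of 20 random codons fused to Sup35N were expressed in psi-negative yeast, induced 24 hours with 100 μM copper sulfate, then grown 7 days at 30°C on medium lacking adenine and uracil. Input and output plasmid inserts were Illumina-sequenced. Nucleation score is the DiMSum log enrichment of output over input reads, centred on the mode score of non-aggregating sequences, excluding sequences with under 100 input reads. Random libraries had three technical output replicates.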
row,Substance,amyloid nucleation score
1,SYGALLNGYGGKSSAPIRWS,inactive
2,YRTARVSG,inactive
3,WTKSFSSNSTQVSQYYSFNL,inactive
4,VCFILFSS,inactive
5,SKAVSLCGLRLMFFPLYPGS,inactive
6,SGTPVPAYSTSWQQNWVKQC,inactive
7,YWFDSPPSFRAYPCWNR,inactive
8,NIGWV,-0.568 ± 1.3
9,DVVGLVAGIVVKLILCSHYG,inactive
10,CRVRGAVRSLLHTVFKVDWV,inactive
11,HFLLNWSRQI,inactive
12,TICCSDLVVEDHG,inactive
13,PYSISMISTRYCLGRQHD,inactive
14,CCYLLHGGRILMIVVMSHHL,inactive
15,FTSFSYYMVCFCADIIKQG,1.97 ± 0.065
16,VRLYMYMTILIGNVDLFVEG,inactive
17,DGLIECWDFNRIMGLNKQNK,-1.33 ± 1.9
18,RTIFFFLDSMLIYSRAVCRL,inactive
19,DRTMQVIIYARQRVPLKWVS,inactive
20,SIFSLLCVRLRGEVAPSRLM,inactive
21,YMLCC,inactive
22,NFLWYCV,1.75 ± 0.089
23,KSGYCNKCMNGFSGTLTSNY,inactive
24,LSWSGNSSAYKSIIR,inactive

row,Substance,amyloid nucleation score
1,SCEDVVANVLLYCRISGHWG,inactive
2,KDLKMYRGF,inactive
3,IVSCLSCHLCLKCYSPLCVL,0.851 ± 0.12
4,VPSQLFLHRHHCVVWIEDMW,0.827 ± 0.19
5,YIEILE,inactive
6,TWQFSGYWCSLYMSA,1.67 ± 0.12
7,ILDMSERFQILNNFR,inactive
8,YIVNLGKFKCQNLMRSCRLK,1.07 ± 0.12
9,SDRRLK,inactive
10,SGTHNKVSTRMFGWNFI,0.584 ± 0.11
11,VCFVWFRRWPTIPR,inactive
12,WTMSKLNGRCTSCPHLARLS,inactive
13,DTWMST,inactive
14,YSAVSTSVMCAE,inactive
15,PMMWSVVVYNTNIYGLVCAM,1.26 ± 0.08
16,PCNFL,inactive
17,TPSSCSTLCQTDMQDQWRVG,inactive
18,GMNKLL,inactive
19,VDIGTYMFKMTHADRWVDHG,inactive
20,SSSVTVYRFKGSTSSLGTNY,inactive
21,VHGYAAFLRRWWEQMNFSVR,inactive
22,FLNLIYNLGRLWFQQLTRFK,inactive
23,CMIHYSSRAILEMWLAPRMY,inactive
24,TPEVISSV,inactive

row,Substance,amyloid nucleation score
1,KVIDGFLTLLSVNHRCKAWQ,inactive
2,MRSYFEDFCGFQAIRS,1.07 ± 0.14
3,ADWRIKFYGCGDLGLFWES,inactive
4,VYGLMIIWVIVLYPV,inactive
5,FKTFSFFKLFCTYCYYTLTE,inactive
6,GRIVMHVICNIFNCNYFGNS,2.94 ± 0.072
7,GGSCLSNPVGKYGILWWMLS,inactive
8,QCKVCIMLYKGDLRANGWYG,1.86 ± 0.091
9,YTMVWFLSSYSNY,inactive
10,RVSFTSITWVSSLM,0.003 ± 0.98
11,SCFCQILPFRV,inactive
12,CEHCMYNRKPR,inactive
13,CEFRIFNWSFCSKRVGLRYV,inactive
14,RIHDNVPSIVWFWEPPHPRH,inactive
15,AFKMVLIGFMSMVERSNVHG,inactive
16,IGFCKDLVTCRTDYYAQLDR,inactive
17,MSILMMSL,inactive
18,LLCND,inactive
19,CHLCGMYSVCFLARSRLVLE,0.067 ± 0.77
20,FIIPSSMTHMARKNIVRAW,inactive
21,LQVARIMVSWIDQCGENRTD,inactive
22,QTRELRSQLLMPFSITDVRS,inactive
23,VNSLNHYYLIPCARFEPEG,inactive
24,VNYDSLPVLRPGSEGGVLFN,inactive

row,Substance,amyloid nucleation score
1,HSNSRD,-0.231 ± 0.69
2,NLDIFGNKMLMGRRGMLNMS,inactive
3,LVYKLRGRCYERLYKWRLCD,inactive
4,ANLADKILFFGSPCRVMHPV,inactive
5,YVWMKGHNHYFFESMDVYLM,inactive
6,FYCIVFQYGSLDLARH,2.69 ± 0.064
7,ARRDLFHWCRRQSCVYN,-0.275 ± 1.1
8,FVSILLYYMPVNCLNRKTIN,inactive
9,TVAEMNIMLC,2.37 ± 0.076
10,PLFFMPGNKWTYFSKSSADT,inactive
11,VWVVV,inactive
12,RSVVMYALSIFYVRFTANQN,0.755 ± 0.23
13,LYDCSINKQG,inactive
14,ITVSTGW,inactive
15,PNGSEIENLMYRGTLSC,inactive
16,SGSVNIHSWCGFNSWT,inactive
17,SVTLRLVFRCP,1.05 ± 0.15
18,ILSTIVMFLVPSYHLFWLWA,inactive
19,DLSTTLINPIEEQPYHFAVP,inactive
20,FTLKRLPGYSHRSLEWLPPY,inactive
21,VRVELNYKMMHMSHRIMY,1.52 ± 0.073
22,GTITPRYRYVIEVSSMKRYW,inactive
23,RLHIVETLSYLNACWPDFSG,inactive
24,LEGLMANVMRGFRSVVPATW,inactive

row,Substance,amyloid nucleation score
1,ILDAMDTLLRYSGCDRLSWK,inactive
2,WKLASVFAVSMR,inactive
3,LWMFDYKPRLVCQKSV,inactive
4,SWVNDRQNFPASLLYRDYLL,inactive
5,IWTLVVCFLDVRRRR,-0.05 ± 0.53
6,LKRLSCFTGSPR,inactive
7,GFYWYTVFAVSLDDCLSKSS,inactive
8,NILGLKCPSYYPQHVSCGYY,inactive
9,SRRFFRWLSYTFGDGRGWLL,inactive
10,LKNPARYYYVVQIFMVLSTA,inactive
11,DNWFN,inactive
12,MYLDIESDMSNTGAE,inactive
13,YGCKANSPLL,inactive
14,LTWYWKNGCSLLPLIGLSGN,inactive
15,FSMCCTWYFKFHL,0.596 ± 0.14
16,LYFILLAHLFSCNNPVSKDP,1.4 ± 0.13
17,VQSMKMGPVRISKCNDKSER,inactive
18,VFDGWGLFRLSTICMCLQRH,inactive
19,ILPLMEFGEPKFESSVYSS,inactive
20,YTDSLVLPHGHMIGRVQSFY,inactive
21,YRSFSSKDVSKL,inactive
22,RSTFYIISCRTVDWESVSTR,inactive
